Consider 10 molecules from patent US20240409648A1 (Boehringer Ingelheim, published 2024).

Bounds are passed on as bounds.

T1: human IL-36R on cells (HEK293 cells transfected with full-length human IL-36R); NCI/ADR-RES cells; human … (human, UniProt Q9HB29 20-575)
T1 sequence (looked up): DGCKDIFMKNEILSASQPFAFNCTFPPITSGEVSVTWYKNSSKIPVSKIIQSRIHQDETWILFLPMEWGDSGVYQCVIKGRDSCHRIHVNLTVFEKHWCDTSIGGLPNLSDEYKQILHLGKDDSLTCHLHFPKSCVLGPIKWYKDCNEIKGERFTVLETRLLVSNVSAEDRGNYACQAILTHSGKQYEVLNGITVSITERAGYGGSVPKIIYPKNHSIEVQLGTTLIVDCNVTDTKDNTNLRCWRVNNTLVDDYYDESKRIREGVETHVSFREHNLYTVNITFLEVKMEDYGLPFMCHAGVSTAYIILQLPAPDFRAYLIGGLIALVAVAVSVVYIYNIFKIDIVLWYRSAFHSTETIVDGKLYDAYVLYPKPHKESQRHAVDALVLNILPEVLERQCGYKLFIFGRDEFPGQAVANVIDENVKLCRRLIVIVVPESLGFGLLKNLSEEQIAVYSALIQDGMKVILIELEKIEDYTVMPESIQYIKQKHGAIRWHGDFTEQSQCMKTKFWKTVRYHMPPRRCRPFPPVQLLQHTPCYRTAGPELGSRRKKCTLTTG

B1: Mouse 81B4 (antibody 81B4) (antibody, V domains shown)
VH: QVQLQQPGADFVRPGASMRLSCKASGYSFTSSWIHWVKQRPGQGLEWIGEINPGNVRTNYNENFRNKATLTVDKSSTTAYMQLRSLTSADSAVYYCTVVFYGEPYFPYWGQGTLVTVSA
VL: QIVLTQSPAIMSASLGERVTMTCTASSSVSSSYFHWYQQKPGSSPKLWIYRTSNLASGVPGRFSGSGSGTSYSLTISSMEAEDAATYYCHQFHRSPLTFGAGTKLELK
B2: Mouse 78C8 (antibody 78C8) (antibody, V domains shown)
VH: QVQLKESGPVLVAPSQSLSITCTVSGFSLTKFGVHWIRQTPGKGLEWLGVIWAGGPTNYNSALMSRLTISKDISQSQVFLRIDSLQTDDTAMYYCAKQIYYSTLVDYWGQGTSVTVSS
VL: DVLLTQTPLSLPVSLGDQASISCRSSQNIVHSNGNTYLQWYLQKPGQSPKLLIYKVSNRFSGVPDRFSGSGSGTDFTLKISRVEAEDLGVYYCFQGSHVPFTFGAGTKLELK
B3: Mouse 73C5 (antibody 73C5) (antibody, V domains shown)
VH: QVQLKESGPGLVAPSQSLSITCTVSGFSLTNYAVHWVRQFPGKGLEWLGVIWSDGSTDFNAPFKSRLSINKDNSKSQVFFKMNSLQIDDTAIYYCARKGGYSGSWFAYWGQGTLVTVSA
VL: DIVMTQSQKFLSTSVGVRVSVTCKASQDVGTNVLWYQQKIGQSPKPLIYSASYRHSGVPDRFTGSGSGTDFTLIISNVQSEDLAEYFCQQYSRYPLTFGPGTKLELK
B4: Mouse 73F6 (antibody 73F6) (antibody, V domains shown)
VH: QVQLKESGPGLVAPSQSLSITCTVSGFSLTNYAVHWVRQFPGKGLEWLGVIWSDGSTDYNAPFKSRLSINKDNSKSQVFFKMNSLQTDDTAIYYCARKGGYSGSWFAYWGQGTLVTVSA
VL: DIVMTQSQKFLSTSVGVRVSVTCKASQDVGTNVLWYQQKIGQSPKALIYSASYRHSGVPDRFTGSGSGTDFTLIITNVQSEDLAEYFCQQYSRYPLTFGPGTKLELK
B5: antibody 76E10 (antibody, V domains shown)
VH: QVQLKESGPVLVAPSQSLSITCTVSGFSLTNYGVHWVRQPPGKGLEWLGVIWPVGSTNYNSALMSRLSIHKDNSKSQVFLRMNSLQTDDTAIYYCAKMDWDDFFDYWGQGTTLTVSS
VL: DIVMTQSQKFMSATVGGRVNITCKASQNVGRAVAWYQQKPGQSPKLLTHSASNRYTGVPDRFTGSGSGTDFTLTITNMQSEDLADYFCQQYSSYPLTFGAGTKLDLK
B6: Mouse 81A1 (antibody 81A1) (antibody, V domains shown)
VH: QVQLKESGPGLVAPSQSLFITCTVSGFSLSSYEINWVRQVPGKGLEWLGVIWTGITTNYNSALISRLSISKDNSKSLVFLKMNSLQTDDTAIYYCARGTGTGFYYAMDYWGQGTSVTVSS
VL: DIQMTQTTSSLSASLGDRVTISCRASQDIYKYLNWYQQKPDGTLKLLIYYTSGLHSGVPSRFSGSGSGTDFSLTISNLEPEDIATYFCQQDSKFPWTFGGDTKLEIK
B7: Mouse 33D10 (antibody 33D10) (antibody, V domains shown)
VH: QVQLQQSGTELLKPGASVKLSCKASGNTVTSYWMHWVKQRPGQGLEWIGEILPSTGRTNYNENFKGKAMLTVDKSSSTAYMQLSSLASEDSAVYYCTIVYFGNPWFAYWGQGTLVTVSA
VL: QIVLTQSPAIMSASLGERVTMTCTASSSVSSSYLHWYQKKPGSSPKLWVYSTSNLASGVPVRFSGSGSGTSYSLTISSMEAEDAATYYCHQHHRSPVTFGSGTKLEMK
B8: antibody 89A12 (antibody, V domains shown)
VH: EVQLQQSGAELVRPGASVRLSCTASGFNIKDDYIHWVRQRPKQGLEWLGRIDPANGNTKYDPRFQDKATITADTSSNTAYLHLSSLTSEDTAVYYCAKSFPDNYYSYDDAFAYWGQGTLVTVSA
VL: DIQMTQSPASQSASLGESVTFSCLASQTIGTWLGWYQQKPGKSPQLLIYRATSLADGVPSRFSGSGSGTNFSFKISSLQAEDLASYYCQQLYSGPYTFGGGTKLEIR
B9: antibody 67E7 (antibody, V domains shown)
VH: EVQLQQSGAEFVRPGASVKFSCTASGFNIKDDYIHWVRQRPEQGLEWVGRIDPANGNTKYAPKFQDKATITADTSSNTAYLQLSSLTSEDTAVYYCAKSFPNNYYSYDDAFAYWGQGTLVTVSA
VL: DIQMTQSPASQSASLGESVTFTCLASQTIGTWLGWYQQKPGKSPQLLIYRSTTLADGVPSRFSGSGSGTKFSFKISSLQAADFASYYCQQLYSAPYTFGGGTKLEIR
B10: antibody 172C8 (antibody, V domains shown)
VH: EVQLQQSGPELVKPGASVKLSCKASGYTFTDNYMNWVRQSHGKSLEWIGRVNPSNGDTKYNQNFKGKATLTVDKSLSTAYMQLNGLTSEDSAVYYCGRTKNFYSSYSYDDAMDYWGQGTSVTVSS
VL: DIQMTQSPASQSASLGESVTFTCLASQTIGTWLAWYQQRPGKSPQLLIYAATSLADGVPSRFSGSGSGTQFSFNIRSLQAEDFASYYCQQVYTTPLTFGGGTKLEIK

For one assay, the target named is T1, human IL-36R on cells (HEK293 cells …). Kind of assay: cell-based or functional assay.
With B1, the “IC90 pNFκB, trun-IL-36g, human primary keratinocytes (NHK)” value was found to be 0.5 nM.

A further assay has as its target cynomolgus IL-36R on BaF/3 cells (cynomolgus). The experiment in a line: cell-based or functional assay.
As to B2, the “IC90 pNFκB, trun-IL-36a, BaF/3 cynomolgus IL-36R cells” value (“IC90 pNFκB, trun-IL-36a” for short) turned out to be 1 nM; the “IC90 pNFκB, trun-IL-36b, BaF/3 cynomolgus IL-36R cells” value (from here on “IC90 pNFκB, trun-IL-36b”) stood at 2.1 nM; the “IC90 pNFκB, trun-IL-36g, BaF/3 cynomolgus IL-36R cells” value was determined as 1.5 nM.

Take B3: the “IC90 pNFκB, trun-IL-36a” value turned out to be 0.2 nM; the “IC90 pNFκB, trun-IL-36b” value came to 1.6 nM; the “IC90 pNFκB, trun-IL-36g, BaF/3 cynomolgus IL-36R cells” value worked out at 1.5 nM.

With B4, the “IC90 pNFκB, trun-IL-36a” value was determined as 0.5 nM; the “IC90 pNFκB, trun-IL-36b” value came to 0.7 nM; the “IC90 pNFκB, trun-IL-36g, BaF/3 cynomolgus IL-36R cells” value was 0.8 nM.

As for B5, the “IC90 pNFκB, trun-IL-36a” value was more than 4000 nM; the “IC90 pNFκB, trun-IL-36b” value was more than 333 nM; the “IC90 pNFκB, trun-IL-36g, BaF/3 cynomolgus IL-36R cells” value was more than 333 nM.

As to B6, the “IC90 pNFκB, trun-IL-36a” value amounted to 0.6 nM; the “IC90 pNFκB, trun-IL-36b” value was determined as 0.9 nM; the “IC90 pNFκB, trun-IL-36g, BaF/3 cynomolgus IL-36R cells” value turned out to be 1 nM.

Take B1: the “IC90 pNFκB, trun-IL-36a” value is 2.4 nM; the “IC90 pNFκB, trun-IL-36b” value turned out to be 3.5 nM; the “IC90 pNFκB, trun-IL-36g, BaF/3 cynomolgus IL-36R cells” value is 5.1 nM.

Turning to B7, the “IC90 pNFκB, trun-IL-36a” value was more than 4000 nM; the “IC90 pNFκB, trun-IL-36b” value is more than 333 nM; the “IC90 pNFκB, trun-IL-36g, BaF/3 cynomolgus IL-36R cells” value was more than 333 nM.

As for B8, the “IC90 pNFκB, trun-IL-36a” value is more than 4000 nM; the “IC90 pNFκB, trun-IL-36b” value is more than 333 nM; the “IC90 pNFκB, trun-IL-36g, BaF/3 cynomolgus IL-36R cells” value is more than 333 nM.

Turning to B9, the “IC90 pNFκB, trun-IL-36a” value was more than 4000 nM; the “IC90 pNFκB, trun-IL-36b” value was more than 333 nM; the “IC90 pNFκB, trun-IL-36g, BaF/3 cynomolgus IL-36R cells” value was more than 333 nM.

For the molecule B10, the “IC90 pNFκB, trun-IL-36a” value was more than 4000 nM; the “IC90 pNFκB, trun-IL-36b” value was more than 333 nM; the “IC90 pNFκB, trun-IL-36g, BaF/3 cynomolgus IL-36R cells” value is more than 333 nM.
